B1: Membrane-associated guanylate kinase, WW and PDZ domain-containing protein 1, residues 352 to 401; numbered along this chain, Q96QZ7 (parent)
chain: TEELDSELELPAGWEKIEDPVYGIYYVDHINRKTQYENPVLEAKRKKQLE

± gives the uncertainty stated by the source.

167 variants from the Human Domainome abundance scans (Beltran et al. 2025) can be followed below.

This series covers variants of B1. The experiment in a line: abundance fitness (aPCA) (normalised: wild type 0, dead -1); higher = more abundant; growth selection in yeast, the domain comes from the species named. Conditions: Homo sapiens.
In the case of S6C, the abundance fitness was -0.447 ± 0.12. S6W: the abundance fitness is -0.44 ± 0.1. Then S6N, with -0.171 ± 0.13; and S6L, with -0.073 ± 0.062. For S6D, the abundance fitness is -0.141 ± 0.055. As to S6M, the abundance fitness is -0.179 ± 0.1.

As to S6F, the abundance fitness is -0.231 ± 0.047. The value for S6I was -0.184 ± 0.083. The value for S6P was -0.358 ± 0.1.

Consider S6G, for which the abundance fitness was -0.041 ± 0.06. The value for S6V was 0.062 ± 0.054; that for S6H was -0.203 ± 0.073; that for S6R was 0.103 ± 0.054. Then S6T, with 0.142 ± 0.091; and S6A, with -0.033 ± 0.07; and S6Q, with -0.046 ± 0.053. In the case of S6E, the abundance fitness was -0.183 ± 0.085. The value for E7D was -0.039 ± 0.072; that for E7K was 0.111 ± 0.1.

Regarding E7S, the abundance fitness was -0.153 ± 0.077.

Consider E7L, for which the abundance fitness is -0.057 ± 0.071. Then E7W, with -0.181 ± 0.094; and E7T, with 0.053 ± 0.071. With E7Q, the abundance fitness was -0.404 ± 0.11. Then E7P, with -0.217 ± 0.091.

Take E7R: the abundance fitness is -0.037 ± 0.044. Consider E7M, for which the abundance fitness was -0.046 ± 0.098. The value for E7F was -0.236 ± 0.068; that for E7V was 0.03 ± 0.044.

For E7I, the abundance fitness was -0.314 ± 0.12. The value for E7A was 0.056 ± 0.062; that for E7H was -0.217 ± 0.072. Then E7N, with -0.228 ± 0.14; and E7Y, with -0.399 ± 0.12; and E7G, with 0.05 ± 0.045.

Take L4K: the abundance fitness is 0.019 ± 0.059.

L4Y: the abundance fitness was -0.444 ± 0.29. L4F: the abundance fitness was -0.051 ± 0.097. Then L4V, with -0.064 ± 0.064.

Consider L4N, for which the abundance fitness was -0.333 ± 0.14. Then L4G, with -0.102 ± 0.059; and L4R, with 0.103 ± 0.058; and L4I, with 0.349 ± 0.11. The value for L4C was -0.593 ± 0.071. Then L4S, with -0.037 ± 0.06; and L4H, with 0.202 ± 0.095. As to L4Q, the abundance fitness was -0.067 ± 0.081. As to L4A, the abundance fitness is -0.101 ± 0.075. The value for L4D was -0.682 ± 0.14; that for L4W was -0.237 ± 0.073; that for L4E was -0.239 ± 0.044.

Consider L4T, for which the abundance fitness is -0.021 ± 0.082. The value for P11S was -0.417 ± 0.039; that for P11M was -0.185 ± 0.089; that for P11A was -0.367 ± 0.045. The value for P11W was -0.519 ± 0.088.

As for P11V, the abundance fitness was -0.671 ± 0.083. The value for P11C was -0.249 ± 0.095; that for P11R was -0.494 ± 0.047. The value for P11D was -0.382 ± 0.11; that for P11N was -0.728 ± 0.14. As to P11Q, the abundance fitness is -0.38 ± 0.059. Then P11G, with -0.268 ± 0.043. Turning to P11I, the abundance fitness is -0.424 ± 0.12.

In the case of P11T, the abundance fitness was -0.194 ± 0.082. The value for P11F was -0.515 ± 0.072; that for P11E was -0.377 ± 0.088; that for P11H was -0.554 ± 0.17.

On to P11L, for which the abundance fitness is -0.35 ± 0.058. Then P11K, with -0.153 ± 0.092; and G13T, with -0.898 ± 0.15; and G13Y, with -0.183 ± 0.066.

Regarding G13V, the abundance fitness is -0.703 ± 0.066. The value for G13P was -0.41 ± 0.047; that for G13M was -0.448 ± 0.057; that for G13D was -0.525 ± 0.12. Then G13K, with -0.368 ± 0.05; and G13R, with -0.59 ± 0.049; and G13Q, with -0.282 ± 0.048. The value for G13H was -0.54 ± 0.13; that for G13W was -0.428 ± 0.06. G13E: the abundance fitness was -0.425 ± 0.049. Then G13A, with -0.458 ± 0.043; and G13I, with -0.63 ± 0.084; and G13C, with -0.339 ± 0.089. The value for E9R was -0.179 ± 0.044; that for E9L was -0.223 ± 0.058. E9K: the abundance fitness was -0.078 ± 0.057. In the case of E9A, the abundance fitness is 0.105 ± 0.044.

Turning to E9S, the abundance fitness is -0.103 ± 0.045.

Consider E9T, for which the abundance fitness is -0.102 ± 0.051. Then E9D, with -0.017 ± 0.1.

As to E9C, the abundance fitness is -0.149 ± 0.072. Then E9W, with -0.497 ± 0.089; and E9H, with -0.095 ± 0.1.

Turning to E9F, the abundance fitness was -0.441 ± 0.059. For E9Q, the abundance fitness is -0.137 ± 0.1. The value for E9M was -0.079 ± 0.073; that for E9V was -0.126 ± 0.061; that for E9I was -0.312 ± 0.13. Then E2M, with -0.265 ± 0.14; and E2Q, with -0.145 ± 0.12; and E2A, with -0.185 ± 0.052. Regarding E2D, the abundance fitness is -0.314 ± 0.1.

As for E2L, the abundance fitness is -0.35 ± 0.15. On to E2C, for which the abundance fitness was found to be 0.319 ± 0.12. The value for E2V was -0.02 ± 0.042. For E2W, the abundance fitness came to 0.113 ± 0.1. The value for E2N was 0.372 ± 0.12; that for E2R was -0.095 ± 0.057; that for E2T was 0.129 ± 0.1.

Take E2G: the abundance fitness was -0.086 ± 0.057. Regarding E2P, the abundance fitness was -0.266 ± 0.059.

E2S: the abundance fitness is -0.191 ± 0.096. The value for E2K was -0.214 ± 0.17. Consider E2H, for which the abundance fitness was -0.523 ± 0.24.

E2Y: the abundance fitness is -0.403 ± 0.24. Then L8T, with -0.105 ± 0.097.

Regarding L8G, the abundance fitness was -0.15 ± 0.049. Then L8A, with -0.042 ± 0.049; and L8N, with -0.561 ± 0.23; and L8I, with -0.361 ± 0.11. Regarding L8Y, the abundance fitness is -0.103 ± 0.067.

L8K: the abundance fitness amounted to 0.095 ± 0.11.

As to L8Q, the abundance fitness was -0.016 ± 0.046. Then L8E, with -0.2 ± 0.058; and L8S, with -0.22 ± 0.07; and L8D, with -0.505 ± 0.046.

In the case of L8F, the abundance fitness is -0.091 ± 0.058. The value for L8W was -0.12 ± 0.07; that for L8M was -0.023 ± 0.078. The value for L8P was -0.248 ± 0.083. Then L8H, with -0.15 ± 0.11.

Take L8V: the abundance fitness is -0.266 ± 0.064. Then E3Q, with -0.226 ± 0.41; and E3P, with -0.744 ± 0.33. The value for E3A was -0.425 ± 0.34; that for I17W was -0.322 ± 0.04; that for I17R was -0.01 ± 0.057.

In the case of I17G, the abundance fitness is -0.602 ± 0.058. The value for I17S was -0.484 ± 0.061. On to I17F, for which the abundance fitness is -0.258 ± 0.098.

Regarding I17Q, the abundance fitness was -0.809 ± 0.16.

Regarding I17M, the abundance fitness is -0.041 ± 0.048. The value for I17V was 0.072 ± 0.065; that for I17H was -0.241 ± 0.11; that for I17L was -0.065 ± 0.069. Then I17D, with -0.637 ± 0.095; and I17Y, with -0.06 ± 0.11.

As for I17T, the abundance fitness was -0.266 ± 0.058.

I17E: the abundance fitness was -0.408 ± 0.059. Then I17P, with -0.836 ± 0.14. The value for I17C was -0.252 ± 0.077; that for I17A was -0.227 ± 0.062; that for I17N was -0.604 ± 0.14. The value for T1V was -0.098 ± 0.089; that for T1C was -0.35 ± 0.26. Consider T1I, for which the abundance fitness is -0.379 ± 0.27.

Turning to T1R, the abundance fitness stood at 0.104 ± 0.18. The value for T1S was 0.004 ± 0.078; that for T1G was -0.118 ± 0.056. The value for T1L was -0.128 ± 0.047; that for T1M was -0.074 ± 0.16; that for T1E was 0.069 ± 0.11.

In the case of T1Y, the abundance fitness is -0.155 ± 0.074. The value for T1A was -0.474 ± 0.22; that for T1W was -0.351 ± 0.2.
